Assay results reported in patent US20240279328A1 (Johns Hopkins, published 2024).
Read-outs that look alike come from different tables or passages of the source.

How the values were obtained:
human Interleukin-2 [1] = target: T1, human Interleukin-2 (human, UniProt P60568 21-153, biotinylated (site not stated) when immobilised on streptavidin biosensors; soluble in the competition studies); test: BLI (Octet), biotinylated human IL-2 on streptavidin sensors, soluble antibody, 1:1 Langmuir fit
T1 construct: also called IL-2; hIL-2
T1 sequence (P60568 21-153 limits assumed): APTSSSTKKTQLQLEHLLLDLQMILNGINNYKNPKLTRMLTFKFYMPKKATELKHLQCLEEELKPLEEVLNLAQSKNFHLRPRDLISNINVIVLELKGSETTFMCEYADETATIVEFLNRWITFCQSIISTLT
Protocol: (§1) Biolayer interferometry binding studies: Binding studies were performed via bio-layer interferometry using an OctetRED96® biolayer interferometry instrument (Sartorius). […] Once baseline measurements were collected in PBSA, binding kinetics were measured by submerging the biosensors in wells containing serial dilutions of the appropriate analytes for 300 s (association) followed by submerging the biosensor in wells containing only PBSA for 500 s (dissociation). […] An irrelevant protein (the monoclonal antibody ipilimumab) was used as a control for nonspecific binding. Tips were regenerated in 0.1 M glycine pH 2.7. Data was processed and kinetic parameters were calculated using the Octet® Data Analysis software version 7.1 (Sartorius), assuming a 1:1 Langmuir binding model. Equilibrium binding was determined by total response measured after 295 s. Equilibrium titration curve fitting and KD value determination was implemented using GraphPad Prism, assuming all binding interactions to be first order.

human Interleukin-2 [2] = target: T1, human Interleukin-2; test: BLI, equilibrium KD from titration curve, immobilised human IL-2, soluble antibody
Protocol: as §1

human Interleukin-2 [3] = target: T1, human Interleukin-2; test: cell-based or functional assay
human Interleukin-2 [4] = target: T1, human Interleukin-2; test: BLI, kinetic KD, immobilised human IL-2, soluble antibody
Protocol: as §1

human Interleukin-2 [5] = target: T1, human Interleukin-2; test: BLI (Octet), biotinylated human IL-2 immobilised on streptavidin tip, soluble antibody titrated, normalized equilibrium response
Protocol: Error bars represent s.d.
as §1, with “model.” for “model. Equilibrium binding was determined by total response measured after 295 s. Equilibrium titration curve fitting and KD value determination was implemented using GraphPad Prism, assuming all binding interactions to be first order.”

human Interleukin-2 [6] = target: T1, human Interleukin-2; test: BLI (Octet), immobilised human IL-2, soluble antibody, 1:1 Langmuir fit
human Interleukin-2 [7] = target: T1, human Interleukin-2; test: cell-based or functional assay; remark: listed apart in the source
human Interleukin-2 [8] = target: T1, human Interleukin-2; test: BLI, kinetic KD, immobilised human IL-2, soluble antibody; remark: listed apart in the source
human Interleukin-2 [9] = target: T1, human Interleukin-2; test: BLI, equilibrium KD from titration curve, immobilised human IL-2, soluble antibody; Equilibrium KD, not kinetic KD
human Interleukin-2 [10] = target: T1, human Interleukin-2; test: BLI, equilibrium KD from titration curve, immobilised human IL-2, soluble antibody; remark: listed apart in the source

Row | Binder | koff (human Interleukin-2 [1]) [s⁻¹] | kon (human Interleukin-2 [1]) [M⁻¹ s⁻¹] | Kd (human Interleukin-2 [2]) [nM] | YT+ EC50 (STAT5 phosphorylation, IL-2Rα+ YT-1 cells) (human Interleukin-2 [3]) [nM] | YT- EC50 (STAT5 phosphorylation, IL-2Rα- YT-1 cells) (human Interleukin-2 [3]) [nM] | Kd (human Interleukin-2 [4]) [nM] | EC50 (read off the curve) (human Interleukin-2 [5]) [nM] | koff (human Interleukin-2 [6]) [s⁻¹] | kon (human Interleukin-2 [6]) [M⁻¹ s⁻¹] | YT+ EC50 (STAT5 phosphorylation, IL-2Rα+ YT-1 cells) (human Interleukin-2 [7]) [nM] | YT- EC50 (STAT5 phosphorylation, IL-2Rα- YT-1 cells) (human Interleukin-2 [7]) [nM] | Kd (human Interleukin-2 [8]) [nM] | Kd (human Interleukin-2 [9]) [nM] | Kd (human Interleukin-2 [10]) [nM]
1 | 602 antibody (wild type anti-human IL-2 antibody) (antibody, mouse IgG2a, kappa) heavy: DEVQLQESGPGLVAPSQSLSITCTVSGFSLTNYDISWIRQPPGKGLEWLGVIWTGGGTNYNSGFMSRLSITKDNSKSQVFLKMNSLQTDDTAIYYCVRQGRTPYWGQGTLVTVSAAKTTAPSVYPLAPVCGDTTGSSVTLGCLVKGYFPEPVTLTWNSGSLSSGVHTFPAVLQSDLYTLSSSVTVTSSTWPSQSITCNVAHPASSTKVDKKIEPRGPTIKPCPPCKCPAPNLLGGPSVFIFPPKIKDVLMISLSPIVTCVVVDVSEDDPDVQISWFVNNVEVHTAQTQTHREDYNSTLRVVSALPIQHQDWMSGKEFKCKVNNKDLPAPIERTISKPKGSVRAPQVYVLPPPEEEMTKKQVTLTCMVTDFMPEDIYVEWTNNGKTELNYKNTEPVLDSDGSYFMYSKLRVEKKNWVERNSYSCSVVHEGLHNHHTTKSFSRTPGK light: AGSDIQVTQSPSSLSVSLGDRVTITCKASKDIYNRLAWYQQKPGNAPRLLISGATSLETGVPSRFSGSGSGKDYTLTITSLQTEDVATYYCQQFWGTPYTFGGGTKLEIKRADAAPTVSIFPPSSEQLTSGGASVVCFLNNFYPKDINVKWKIDGSERQNGVLNSWTDQDSKDSTYSMSSTLTLTKDEYERHNSYTCEATHKTSTSPIVKSFNRNEC | 0.0019 | 780000 | 3.2 | 0.18 | 5.2 | 2.5 | ~3 | – | – | – | – | – | – | –
2 | 602 M8 glycovariant (N-glycosylation site inserted in the light chain) (antibody, mouse IgG2a, kappa, inserted N-linked glycosylation site (position shown only in a drawing), Two amino acids changed in the light chain to create a new N-glycosylation site; also called Mutant 8) heavy: DEVQLQESGPGLVAPSQSLSITCTVSGFSLTNYDISWIRQPPGKGLEWLGVIWTGGGTNYNSGFMSRLSITKDNSKSQVFLKMNSLQTDDTAIYYCVRQGRTPYWGQGTLVTVSAAKTTAPSVYPLAPVCGDTTGSSVTLGCLVKGYFPEPVTLTWNSGSLSSGVHTFPAVLQSDLYTLSSSVTVTSSTWPSQSITCNVAHPASSTKVDKKIEPRGPTIKPCPPCKCPAPNLLGGPSVFIFPPKIKDVLMISLSPIVTCVVVDVSEDDPDVQISWFVNNVEVHTAQTQTHREDYNSTLRVVSALPIQHQDWMSGKEFKCKVNNKDLPAPIERTISKPKGSVRAPQVYVLPPPEEEMTKKQVTLTCMVTDFMPEDIYVEWTNNGKTELNYKNTEPVLDSDGSYFMYSKLRVEKKNWVERNSYSCSVVHEGLHNHHTTKSFSRTPGK light: AGSNITVTQSPSSLSVSLGDRVTITCKASKDIYNRLAWYQQKPGNAPRLLISGATSLETGVPSRFSGSGSGKDYTLTITSLQTEDVATYYCQQFWGTPYTFGGGTKLEIKRADAAPTVSIFPPSSEQLTSGGASVVCFLNNFYPKDINVKWKIDGSERQNGVLNSWTDQDSKDSTYSMSSTLTLTKDEYERHNSYTCEATHKTSTSPIVKSFNRNEC | 0.0018 | 1e+06 | 2.3 | 0.17 | 4.5 | 1.8 | – | – | – | – | – | – | – | –
3 | 602 M1 glycovariant (N-glycosylation site inserted in the heavy chain) (antibody, mouse IgG2a, kappa, inserted N-linked glycosylation site (position shown only in a drawing), One amino acid changed in the heavy chain to create a new N-glycosylation site; also called Mutant 1) heavy: DEVQLQESGPGLVAPSQSLSITCTVSGFSLTNYDISWIRQPPGKGLEWLGVIWTGGGTNYNSGFMSRLSITKDNSKSQVFLKMNSLQTDDTAIYYCVRQGRTPYWGNGTLVTVSAAKTTAPSVYPLAPVCGDTTGSSVTLGCLVKGYFPEPVTLTWNSGSLSSGVHTFPAVLQSDLYTLSSSVTVTSSTWPSQSITCNVAHPASSTKVDKKIEPRGPTIKPCPPCKCPAPNLLGGPSVFIFPPKIKDVLMISLSPIVTCVVVDVSEDDPDVQISWFVNNVEVHTAQTQTHREDYNSTLRVVSALPIQHQDWMSGKEFKCKVNNKDLPAPIERTISKPKGSVRAPQVYVLPPPEEEMTKKQVTLTCMVTDFMPEDIYVEWTNNGKTELNYKNTEPVLDSDGSYFMYSKLRVEKKNWVERNSYSCSVVHEGLHNHHTTKSFSRTPGK light: AGSDIQVTQSPSSLSVSLGDRVTITCKASKDIYNRLAWYQQKPGNAPRLLISGATSLETGVPSRFSGSGSGKDYTLTITSLQTEDVATYYCQQFWGTPYTFGGGTKLEIKRADAAPTVSIFPPSSEQLTSGGASVVCFLNNFYPKDINVKWKIDGSERQNGVLNSWTDQDSKDSTYSMSSTLTLTKDEYERHNSYTCEATHKTSTSPIVKSFNRNEC | 0.002 | 790000 | 3.2 | 0.16 | 6 | 2.5 | – | – | – | – | – | – | – | –
4 | F5111 antibody (wild type anti-hIL2 antibody, human IgG1, lambda light chain) (antibody, Expressed in CHO cells, purified on protein G; also called F5111 WT; parent F5111 mAb) heavy: not shown light: GSNFMLTQPHSVSESPGKTVTISCTRSSGSIASNYVQWYQQRPGSSPTTVIYEDNQRPSGVPDRFSGSIDSSSNSASLTISGLKTEDEADYYCQSYDSSNVVFGGGTKLTVLGQPKAAPSVTLFPPSSEELQANKATLVCLISDFYPGAVTVAWKADSSPVKAGVETTTPSKQSNNKYAASSYLSLTPEQWKSHRSYSCQVTHEGSTVEKTVAPTECS | – | – | – | – | – | – | – | 0.00022 | 360000 | 0.15 | 0.66 | 0.63 | 6.5 | –
5 | F5111 M1 glycovariant (N-glycosylation site inserted in the heavy chain) (antibody, human IgG1, lambda, inserted N-linked glycosylation site (position shown only in a drawing)) heavy: not shown light: GSNFMLTQPHSVSESPGKTVTISCTRSSGSIASNYVQWYQQRPGSSPTTVIYEDNQRPSGVPDRFSGSIDSSSNSASLTISGLKTEDEADYYCQSYDSSNVVFGGGTKLTVLGQPKAAPSVTLFPPSSEELQANKATLVCLISDFYPGAVTVAWKADSSPVKAGVETTTPSKQSNNKYAASSYLSLTPEQWKSHRSYSCQVTHEGSTVEKTVAPTECS | – | – | – | – | – | – | – | 0.00038 | 330000 | 0.043 | 0.89 | 1.1 | – | 7.8
6 | F5111 M3 glycovariant (N-glycosylation site inserted in the heavy chain) (antibody, human IgG1, lambda, inserted N-linked glycosylation site (position shown only in a drawing)) heavy: not shown light: GSNFMLTQPHSVSESPGKTVTISCTRSSGSIASNYVQWYQQRPGSSPTTVIYEDNQRPSGVPDRFSGSIDSSSNSASLTISGLKTEDEADYYCQSYDSSNVVFGGGTKLTVLGQPKAAPSVTLFPPSSEELQANKATLVCLISDFYPGAVTVAWKADSSPVKAGVETTTPSKQSNNKYAASSYLSLTPEQWKSHRSYSCQVTHEGSTVEKTVAPTECS | – | – | – | – | – | – | – | 0.00017 | 310000 | 0.089 | 0.39 | 0.55 | – | 8.3
7 | F5111 M2 glycovariant (N-glycosylation site inserted in the heavy chain) (antibody, human IgG1, lambda, V domains shown, inserted N-linked glycosylation site (position shown only in a drawing)) VH: QLQLQESGPGLVKPSQTLSLTCTVSGGSISSGGYYWSWIRQHPGKGLEWIGYIYYSGSTYYNPSLKSRVTISVDTSKNQFSLKLSNVTAADTAVYYCARTPTVTGDWFDPWGRGTLVTVSS VL: SNFMLTQPHSVSESPGKTVTISCTRSSGSIASNYVQWYQQRPGSSPTTVIYEDNQRPSGVPDRFSGSIDSSSNSASLTISGLKTEDEADYYCQSYDSSNVVFGGGTKLTVLG | – | – | – | – | – | – | – | 0.00021 | 270000 | 0.098 | 0.44 | 0.76 | – | 9.6
8 | F5111 M5 glycovariant (N-glycosylation site inserted in the light chain) (antibody, human IgG1, lambda, V domains shown, inserted N-linked glycosylation site (position shown only in a drawing)) VH: QLQLQESGPGLVKPSQTLSLTCTVSGGSISSGGYYWSWIRQHPGKGLEWIGYIYYSGSTYYNPSLKSRVTISVDTSKNQFSLKLSSVTAADTAVYYCARTPTVTGDWFDPWGRGTLVTVSS VL: SNFMLTQPHSVSESPGKTVTISCTRSSGSIASNYVQWYQQRPGSSPTTVIYEDNQRPSGVPDRFSGSIDNSSNSASLTISGLKTEDEADYYCQSYDSSNVVFGGGTKLTVLG | – | – | – | – | – | – | – | 0.00023 | 280000 | 0.039 | 0.79 | 0.82 | – | 9.8
9 | F5111 M4 glycovariant (N-glycosylation site inserted in the light chain) (antibody, human IgG1, lambda, V domains shown, inserted N-linked glycosylation site (position shown only in a drawing)) VH: QLQLQESGPGLVKPSQTLSLTCTVSGGSISSGGYYWSWIRQHPGKGLEWIGYIYYSGSTYYNPSLKSRVTISVDTSKNQFSLKLSSVTAADTAVYYCARTPTVTGDWFDPWGRGTLVTVSS VL: SNFMLTQPHSVSESPGKTVTISCTRSSGSIASNYVQWYQQRPGSSPTTVIYEDNQRPSGVPDRFSGSINSSSNSASLTISGLKTEDEADYYCQSYDSSNVVFGGGTKLTVLG | – | – | – | – | – | – | – | 0.00014 | 270000 | 0.17 | 0.52 | 0.5 | – | 9.7
